The values that follow come from patent publication US20150037348A1 (AbbVie / Abbott, published 2015).

Assay [1] has as its target T1, recombinant human IL-12 (rhIL-12) (human, UniProt P29459 23-219; P29460 23-328).
T1 construct: disulfide-linked p35/p40 heterodimer (p70); also called IL-12 p70; rec. human IL12
T1 sequence (looked up) 1: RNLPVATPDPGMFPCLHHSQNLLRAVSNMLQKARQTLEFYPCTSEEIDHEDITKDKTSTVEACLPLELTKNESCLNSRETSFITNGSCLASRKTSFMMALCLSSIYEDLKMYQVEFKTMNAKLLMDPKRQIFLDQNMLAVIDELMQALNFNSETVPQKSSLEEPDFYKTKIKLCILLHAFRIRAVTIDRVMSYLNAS
T1 sequence (looked up) 2: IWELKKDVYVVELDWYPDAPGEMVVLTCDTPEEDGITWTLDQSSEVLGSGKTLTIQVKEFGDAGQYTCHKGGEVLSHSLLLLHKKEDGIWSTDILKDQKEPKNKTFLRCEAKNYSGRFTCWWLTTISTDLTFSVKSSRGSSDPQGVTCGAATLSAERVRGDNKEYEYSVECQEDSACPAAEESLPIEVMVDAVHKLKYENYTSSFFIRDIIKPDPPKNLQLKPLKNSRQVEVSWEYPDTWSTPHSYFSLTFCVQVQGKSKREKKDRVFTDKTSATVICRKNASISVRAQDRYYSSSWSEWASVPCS
Kind of assay: BIAcore SPR. (In general: In SPR one partner is held on a chip, and binding of the other changes the refractive index at the surface.)

The target of assay [2] is T1, recombinant human IL-12 (rhIL-12). Description: receptor binding assay, 125I-hIL-12 on PHA blasts. The method, then: PHA blast cells isolated as described above, were washed once and resuspended in binding buffer to a cell density of 2×10⁷ cells/ml. […] The cell pellet was examined for cell bound radioactivity using a gamma counter. […] Incubations were carried out in duplicate.

For assay [3] the target is unchanged. Kind of assay: cell-based or functional assay.
The target is the same in assay [4]. Kind of assay: cell-based or functional assay. This is another data set of the same source.
The target is the same in assay [5]. Description: cell-based or functional assay. This is another data set of the same source.
Assay [6] has as its target T2, human interleukin 12 (p70 heterodimer of p35 and p40) (human, UniProt P29459 23-219; P29460 23-328).
T2 construct: Recombinant human IL-12; p35 and p40 linked by a disulfide bridge; also called hIL-12; IL-12
T2 sequence (looked up) 1: T1 sequence (looked up) 1
T2 sequence (looked up) 2: T1 sequence (looked up) 2
Description: BIAcore.

The target in assay [7] is T2, human interleukin 12 (p70 heterodimer …). Kind of assay: BIAcore. The source holds these as a separate data set.
Assay [8] shares this target. Description: BIAcore. This is another data set of the same source.
Assay [9] shares this target. Kind of assay: BIAcore. This is another data set of the same source.
The target is the same in assay [10]. Kind of assay: BIAcore. The source holds these as a separate data set.
The target is the same in assay [11]. Description: BIAcore. This is another data set of the same source.
For assay [12] the target is unchanged. Kind of assay: BIAcore. This is another data set of the same source.

Positions count from the first letter of the chain named. Where “and” joins values, the source holds several entries; their conditions need not be identical. Identical values can stand only once. Like-named read-outs stand apart in the source and are kept apart here.

B1: Y61 IgG (antibody, V domains shown)
VH: QVQLVQSGGGVVQPGRSLRLSCAASGFTFSSYGMHWVRQAPGKGLEWVAFIRYDGSNKYYADSVKGRFTISRDNSKNTLYLQMKSLRAEDTAVYYCKTHGSHDNWGQGTMVTVSS
VL: SYVLTQPPSVSGTPGQRVTISCSGGRSWIGSNTVKWYQQLPGTAPKLLIYGNDQRPSGVPDRFSGSKSGTSASLAITGVQAEDEADYYCQSYDRGTHPALLFGTGTKVTVLG
notes: whole IgG1; also called Y61-IgG1
In general, koff refers to the rate constant with which the complex falls apart. One may read the IC50 as the concentration that inhibits the measured activity by half. With B1, the dissociation rate constant (koff) in [1] amounted to 0.00015 s⁻¹. Besides, the half-maximal inhibitory concentration (IC50) in assay [2] was 0.016 nM. For the same molecule, the “IC50 (M), bioassay, Human IL-12 Purified” value in assay [3] was 1.7e-10 M. Also, in [4], the “PHA assay IC50 (M) p70:p40 1:0” value was 1.8e-10 M and the “PHA assay IC50 (M) p70:p40 1:50” value amounted to 1.8e-10 M. In [5], the “PHA assay IC50” value stood at 0.13 nM.

B2: Y61 scFv (scFv, V domains shown)
VH: B1 VH
VL: B1 VL
notes: Single chain Fv; also called clone Y61
In the case of B2, the koff in [6] was 0.000403 s⁻¹; in assay [7], 0.000215 s⁻¹ and 0.000297 s⁻¹; in [8], 0.000259 s⁻¹ and 0.000199 s⁻¹ and 0.000256 s⁻¹; in assay [9], 0.000385 s⁻¹ and 0.00031 s⁻¹; in assay [10] it was 0.000204 s⁻¹ and 0.000206 s⁻¹ and 0.000151 s⁻¹ and 0.000178 s⁻¹; in [11] it was 0.000211 s⁻¹ and 0.000229 s⁻¹ and 0.000241 s⁻¹. Further, the koff in [12] was 0.000249 s⁻¹ and 0.000168 s⁻¹ and 0.000337 s⁻¹ and 0.000178 s⁻¹.

B3: AO3 IgG1 (antibody, V domains shown)
VH: B1 VH
VL: B1 VL with W28N, A99L, L100T, L101M
notes: IgG1
Take B3: the koff in assay [1] turned out to be 0.000304 s⁻¹. In addition, the IC50 in [2] came out at 0.029 nM. Moreover, in [4], the “PHA assay IC50 (M) p70:p40 1:0” value is 2.5e-10 M and the “PHA assay IC50 (M) p70:p40 1:50” value worked out at 2.2e-10 M. Besides, the “PHA assay IC50” value in assay [5] was 0.38 nM.
